{
  "source": "patent US20050112698A1",
  "about": "(Bayer, published 2005)",
  "binders": {"B1": {"name": "Fab A2-G8 (Fab, V domains shown)", "VH": "not shown", "VL": "QMTQSPSSLSASVGDRVTITCRASQGIRGYLGWYQQKPGKAPKLLIYSASSLQSGVPSRFSGSGSGTDFTLTISSLQPEDFATYYCQQYSGMPYTFGQGTKVEIKR", "notes": "Fab format; also called anti-SCF Fab A2-G8; parent Fab A2-G8"}, "B2": {"name": "A2-G8 IgG (antibody, V domains shown)", "VH": "not shown", "VL": "B1 VL", "notes": "Human IgG1 kappa expressed in HKB11 cells; also called A2-G8 Mab; SCF antibody A2-G8"}, "B3": {"name": "Fab A8 (first screen, Vλ1) (Fab, V domains shown)", "VH": "not shown", "VL": "DIVLTQPPSVSGAPGQRVTISCSGSSSNIGSNYVSWYQQLPGTAPKLLIYDNNQRPSGVPDRFSGSKSGTSASLAITGLQSEDEADYYCQSRDHYVVRWVFGGGTKLTVL", "notes": "It carries FLAG and Strep tags"}, "B4": {"name": "Fab A2 (Fab, V domains shown)", "VH": "not shown", "VL": "DIQMTQSPSSLSASVGDRVTITCRASQGISSYLAWYQQKPGKAPKLLIYAASSLQSGVPSRFSGSGSGTDFTLTISSLQPEDFATYYCQQYSGMPYTFGQGTKVEIK", "notes": "HuCAL Fab and parent of the A2-xx clones; It carries FLAG and Strep tags"}},
  "key": {"human Stem Cell Factor [1]": {"biological_target": "T1, human Stem Cell Factor (human, UniProt P21583 26-189)", "T1 sequence (P21583 other isoform, or with tags, fused parts or gaps limits assumed)": "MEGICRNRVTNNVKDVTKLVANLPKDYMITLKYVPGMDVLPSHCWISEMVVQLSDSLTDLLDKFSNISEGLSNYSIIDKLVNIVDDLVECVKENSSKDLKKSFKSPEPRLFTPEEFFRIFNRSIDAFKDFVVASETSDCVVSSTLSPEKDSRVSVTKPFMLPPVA", "assay": "cell-based or functional assay"}, "Cynomolgus Monkey SCF [2]": {"biological_target": "T2, Cynomolgus Monkey SCF (cynomolgus monkey, UniProt A0A7N9CAX5 26-189)", "T2 construct": "Soluble recombinant protein made in house (Bayer); NiNTA purification implies a His tag, but none is described; also called cSCF; cyno SCF", "assay": "SPR BIAcore, 5000 RU immobilized cSCF, off-rate ranking; high density chip (5000 RU cSCF), off-rate ranking", "method": "(§1) TABLE 12 Sequences of the CDR3 Vk1 Region of Selected Antibody Clones with Comparison of koff and SCF Inhibitory Activity The off-rates were determined using a high density surface CM5 chip (5000 RU of immobilized cSCF) on BIAcore and are shown with comparison to the original A2-G8 clone. […] The IC₅₀ in the TF-1 proliferation assay was based on an average of two assays with the exception of the A2-G8-IgG (n = 5).\n(§2) Analysis of Fab binding to cSCF was performed by surface plasmon resonance using a BIAcore 2000 (Biacore, Piscataway, N.J.), according to the manufacturer's instructions and a CM5 chip (Biacore) coated with cSCF. For amine coupling, a research grade CM5 chip was activated using the standard NHS/EDC procedure. Cynomologus monkey SCF was diluted to 20 μg/ml in 10 mM NaAcetate, pH 5.0, and a total of 5000 RU's were coupled to channel 2 of the sensor surface. The remaining active sites were quenched by the addition of 1M ethanolamine, pH 8.0. Channel 1 was subjected to the coupling procedure in the absence of protein and was used as a reference surface. Extracts were diluted 1/5 in HBS-EP running buffer and injected for 2 min using a flow rate of 20 μl/min. The surface was regenerated by two consecutive injections of 25 μl, 10 mM glycine, pH 2.5, using a flow rate of 100 μl/min. The koff was calculated from a single concentration of Fab using BIAevaluation software (Biacore)."}, "Cynomolgus Monkey SCF [3]": {"biological_target": "T2, Cynomolgus Monkey SCF", "assay": "SPR BIAcore 2000, Fab over 185 RU immobilized cSCF", "method": "(§3) Affinity measurements were carried out on a BIAcore 2000 (Biacore) at 25° C. […] Purified Fab's were diluted in HBS-EP running buffer at concentrations ranging from 1.95 to 125 nM. A volume of 100 μl was injected using a flow rate of 50 μl/min in Kinject mode. After a 10 min dissociation, 50 μl of 10 mM Glycine, pH 2.5 and 25 μl of 10 mM Glycine, pH 2.0 was injected using a flow rate of 100 μl/min. All samples were run in duplicate. […] Cynomologus monkey SCF was diluted in HBS-EP running buffer at concentrations ranging from 15.6 to 500 nM and 150 μl injected at a flow rate of 50 μl/min. After a 15 min dissociation, 50 μl of 10 mM Glycine, pH 2.5, and 25 μl of 10 mM Glycine, pH 1.5 was injected using a flow rate of 100 μl/min. All samples were run in duplicate. The data was globally fit to the 1 to 1 binding model using BIAevaluation software. The raw experimental data were corrected for instrumental and bulk solvent artifacts by double referencing using both activated and blocked surfaces as controls.\n(§4) To evaluate the binding properties of anti-SCF Fabs selected from affinity optimization of the CDR3 loop with SCF, the real time interaction was measured using surface plasmon resonance with the BIAcore 2000. […] The improvement in Kd's are primarily governed by a substantial reduction in the off-rate (koff). […] The affinity constants for Fab binding to human SCF were slightly lower than those Kd's for cynomologus monkey SCF. The panning design, with lower antigen concentrations and extensive washing steps, favors off-rate selection. The affinity of the A2-G8 clone in an IgG vector was measured using the IgG immobilized to the surface of the CM5 chip."}, "Cynomolgus Monkey SCF [4]": {"biological_target": "T2, Cynomolgus Monkey SCF", "assay": "competition ELISA: cSCF binding to coated human SCFR, Fab 3.1 µg/ml", "method": "The extracts containing Fab were also tested for the ability to inhibit SCF binding to the SCF receptor. ELISA plates were coated overnight with 2 μg/ml human SCFR (R&D Systems, Minneapolis, Minn.) in PBS at 4° C. After washing with TBS-T, the plate was blocked with 5 mg/ml BSA in PBS. The extract was diluted 1/5 in PBS buffer containing 12.5 ng/ml cSCF and 1 mg/ml BSA. After a 1 hr incubation at room temperature, 100 μl was added to the blocked ELISA plate and incubated an additional hour. The plate was washed 5 times with TBS-T, and 100 μl of a 0.4 μg/ml solution of anti-SCF (R&D Systems) in 1 mg/ml BSA in PBS was added. After 1 hour the plate was washed and incubated with anti-Mouse-HRP (Sigma, St. Louis, Mo.). The plate was developed with BM Blue POD substrate (Roche Diagnostics, Chicago, Ill.) and read at 370 nm.\nas §1"}, "Cynomolgus Monkey SCF [5]": {"biological_target": "T2, Cynomolgus Monkey SCF", "assay": "SPR BIAcore, initial screening (high RU of immobilized antigen, low flow rate)", "method": "as §2, with “Extracts were diluted 1/5 in HBS-EP running buffer and injected for 2 min using a flow rate of 20 μl/min. The surface was regenerated by two consecutive injections of 25 μl, 10 mM glycine, pH 2.5, using a flow rate of 100 μl/min.” left out\nThe koffrates determined using kinetic conditions (low RU's of immobilized antigen and high flow rates) on the BIAcore gave higher values than those koff's determined under non-kinetic conditions used during the initial screening procedure (high RU's of immobilized antigen and low flow rates). This is especially apparent for the A2-G8 Fab, where a koff of 6×10⁻³ sec⁻¹ was measured during the initial screening process, compared to a koff value of 1×10⁻² sec⁻¹ measured using kinetic parameters. […] The koff rates determined in the initial screening process, therefore, should not be considered absolute values but a ranking with other Fabs."}, "human Stem Cell Factor [6]": {"biological_target": "T1, human Stem Cell Factor", "assay": "BIAcore, Affinity Estimation, Fab"}, "Cynomolgus Monkey SCF [7]": {"biological_target": "T2, Cynomolgus Monkey SCF", "assay": "cell-based or functional assay"}, "human Stem Cell Factor [8]": {"biological_target": "T1, human Stem Cell Factor", "assay": "cell-based or functional assay", "remark": "listed apart in the source"}, "Cynomolgus Monkey SCF [9]": {"biological_target": "T2, Cynomolgus Monkey SCF", "assay": "SPR BIAcore, off-rate (legend: 5000 RU immobilized cSCF); Table 12 off-rate list (legend: immobilized cSCF)"}, "human Stem Cell Factor [10]": {"biological_target": "T1, human Stem Cell Factor", "assay": "cell-based or functional assay", "remark": "listed apart in the source"}, "Cynomolgus Monkey SCF [11]": {"biological_target": "T2, Cynomolgus Monkey SCF", "assay": "SPR BIAcore 2000, cSCF over 550 RU immobilized IgG", "method": "as §3, §4"}, "human Stem Cell Factor [12]": {"biological_target": "T1, human Stem Cell Factor", "assay": "BIAcore, Fab on immobilized SCF"}, "human Stem Cell Factor [13]": {"biological_target": "T1, human Stem Cell Factor", "assay": "cell-based or functional assay", "remark": "listed apart in the source"}, "Cynomolgus Monkey SCF [14]": {"biological_target": "T2, Cynomolgus Monkey SCF", "assay": "cell-based or functional assay", "remark": "listed apart in the source"}, "human Stem Cell Factor [15]": {"biological_target": "T1, human Stem Cell Factor", "assay": "cell-based or functional assay", "remark": "listed apart in the source"}, "rat Stem Cell Factor": {"biological_target": "T3, rat Stem Cell Factor (rat, UniProt P21581 26-189, limits assumed)", "T3 sequence (looked up)": "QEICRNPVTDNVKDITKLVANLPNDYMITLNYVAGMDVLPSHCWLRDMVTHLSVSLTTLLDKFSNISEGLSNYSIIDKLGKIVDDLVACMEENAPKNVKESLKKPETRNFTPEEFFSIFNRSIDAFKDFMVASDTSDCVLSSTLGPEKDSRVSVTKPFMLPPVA", "assay": "cell-based or functional assay"}},
  "data": [
    {"binder": "B1", "values": [
      {"measurement": "TF-1 Fab assay IC50", "setting": "human Stem Cell Factor [1]", "result": 5, "unit": "mg/L"},
      {"measurement": "koff", "setting": "Cynomolgus Monkey SCF [2]", "result": 0.00306, "unit": "s⁻¹"},
      {"measurement": "Kd", "setting": "Cynomolgus Monkey SCF [3]", "result": 0.0251, "unit": "µM"},
      {"measurement": "koff", "setting": "Cynomolgus Monkey SCF [3]", "result": 0.0106, "unit": "s⁻¹"},
      {"measurement": "kon", "setting": "Cynomolgus Monkey SCF [3]", "result": 420000, "unit": "M⁻¹ s⁻¹"},
      {"measurement": "% Inhibition SCF Binding ELISA Assay", "setting": "Cynomolgus Monkey SCF [4]", "result": 30, "unit": "%"},
      {"measurement": "koff", "setting": "Cynomolgus Monkey SCF [5]", "result": 0.006, "unit": "s⁻¹"},
      {"measurement": "Kd", "setting": "human Stem Cell Factor [6]", "result": 0.009, "unit": "µM"},
      {"measurement": "IC50 TF-1 cynoSCF Assay", "setting": "Cynomolgus Monkey SCF [7]", "result": 5.7, "unit": "mg/L"},
      {"measurement": "IC50 TF-1 huSCF Assay", "setting": "human Stem Cell Factor [8]", "result": 2.36, "unit": "mg/L"}
    ]},
    {"binder": "B2", "values": [
      {"measurement": "Eosinophil IgG assay IC50 (human eosinophil survival)", "setting": "human Stem Cell Factor [1]", "result": 1.5, "unit": "mg/L"},
      {"measurement": "TF-1 IgG assay IC50", "setting": "human Stem Cell Factor [1]", "result": 1, "unit": "mg/L"},
      {"measurement": "koff", "setting": "Cynomolgus Monkey SCF [9]", "result": 0.0013, "unit": "s⁻¹"},
      {"measurement": "IC50, Cyno Eos (SCF-stimulated cyno eosinophil survival)", "setting": "human Stem Cell Factor [10]", "result": 3, "unit": "mg/L"},
      {"measurement": "IC50, Human Eos (SCF-stimulated human eosinophil survival)", "setting": "human Stem Cell Factor [10]", "result": 1.5, "unit": "mg/L"},
      {"measurement": "IC50, TF-1 (SCF-induced TF-1 proliferation)", "setting": "human Stem Cell Factor [10]", "result": 1, "unit": "mg/L"},
      {"measurement": "Kd", "setting": "Cynomolgus Monkey SCF [11]", "result": 0.0358, "unit": "µM"},
      {"measurement": "koff", "setting": "Cynomolgus Monkey SCF [11]", "result": 0.0013, "unit": "s⁻¹"},
      {"measurement": "kon", "setting": "Cynomolgus Monkey SCF [11]", "result": 36300, "unit": "M⁻¹ s⁻¹"},
      {"measurement": "IC50 TF-1 cynoSCF Assay", "setting": "Cynomolgus Monkey SCF [7]", "result": 11.2, "unit": "mg/L"},
      {"measurement": "IC50 TF-1 huSCF Assay", "setting": "human Stem Cell Factor [8]", "result": 2.32, "unit": "mg/L"}
    ]},
    {"binder": "B3", "values": [
      {"measurement": "Kd", "setting": "human Stem Cell Factor [12]", "result": 0.0097, "unit": "µM"},
      {"measurement": "Efficacy IC50 (TF-1 proliferation assay, Fab)", "setting": "human Stem Cell Factor [13]", "result": 30, "unit": "mg/L"},
      {"measurement": "percent inhibition of SCF-induced TF-1 proliferation at 200 ug/ml Fab", "setting": "Cynomolgus Monkey SCF [14]", "result": "> 100", "unit": "%"},
      {"measurement": "percent inhibition of SCF-induced TF-1 proliferation at 200 ug/ml Fab", "setting": "human Stem Cell Factor [15]", "result": "> 100", "unit": "%"}
    ]},
    {"binder": "B4", "values": [
      {"measurement": "Kd", "setting": "human Stem Cell Factor [12]", "result": 0.0657, "unit": "µM"},
      {"measurement": "Efficacy IC50 (TF-1 proliferation assay, Fab)", "setting": "human Stem Cell Factor [13]", "result": 29, "unit": "mg/L"},
      {"measurement": "IC50, inhibition of cyno SCF in TF-1 proliferation", "setting": "Cynomolgus Monkey SCF [14]", "result": "20 to 60", "unit": "mg/L"},
      {"measurement": "percent inhibition of SCF-induced TF-1 proliferation at 200 ug/ml Fab", "setting": "Cynomolgus Monkey SCF [14]", "result": "> 100", "unit": "%"},
      {"measurement": "IC50, inhibition of rat SCF in TF-1 proliferation", "setting": "rat Stem Cell Factor", "result": "20 to 60", "unit": "mg/L"},
      {"measurement": "percent inhibition of SCF-induced TF-1 proliferation at 200 ug/ml Fab", "setting": "rat Stem Cell Factor", "result": "> 100", "unit": "%"},
      {"measurement": "percent inhibition of SCF-induced TF-1 proliferation at 200 ug/ml Fab", "setting": "human Stem Cell Factor [15]", "result": "> 100", "unit": "%"}
    ]}
  ]
}
